Reference: patent US20100260748A1

Target: T1, human FcRH5 (FcRH5c/IRTA2c, PRO52387), recombinant protein ('Hu antigen') (human) (UniProt Q96RD9)
T1 sequence: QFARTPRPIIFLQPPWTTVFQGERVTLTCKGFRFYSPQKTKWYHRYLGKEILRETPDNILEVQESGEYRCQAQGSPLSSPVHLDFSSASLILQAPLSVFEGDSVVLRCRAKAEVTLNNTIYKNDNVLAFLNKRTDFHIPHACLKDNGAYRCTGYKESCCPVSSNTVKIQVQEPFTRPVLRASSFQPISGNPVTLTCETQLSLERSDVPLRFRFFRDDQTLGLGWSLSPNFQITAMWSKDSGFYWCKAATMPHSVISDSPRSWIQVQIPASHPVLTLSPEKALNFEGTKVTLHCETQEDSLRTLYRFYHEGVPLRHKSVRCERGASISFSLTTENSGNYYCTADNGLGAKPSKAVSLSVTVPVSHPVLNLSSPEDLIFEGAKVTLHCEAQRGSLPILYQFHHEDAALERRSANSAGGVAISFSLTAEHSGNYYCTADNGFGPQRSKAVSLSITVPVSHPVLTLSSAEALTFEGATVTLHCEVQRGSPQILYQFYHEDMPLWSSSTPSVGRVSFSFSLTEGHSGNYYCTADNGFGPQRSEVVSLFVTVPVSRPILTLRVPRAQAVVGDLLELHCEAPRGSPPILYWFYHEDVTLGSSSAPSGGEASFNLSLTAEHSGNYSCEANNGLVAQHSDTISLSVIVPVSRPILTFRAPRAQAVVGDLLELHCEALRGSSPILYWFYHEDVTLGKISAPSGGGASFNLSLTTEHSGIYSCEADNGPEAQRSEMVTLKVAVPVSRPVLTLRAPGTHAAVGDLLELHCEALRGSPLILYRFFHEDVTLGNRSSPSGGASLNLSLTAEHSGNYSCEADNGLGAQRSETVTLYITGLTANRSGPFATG
Experiment: SPR (Biacore 2000), IgG captured on anti-murine IgG chip, serial dilutions of FcRH injected, 25 C, 1:1 Langmuir fit

B1: murine anti-FcRH5-13G9 monoclonal antibody (antibody, from another filing, V domains shown)
VH: EVQLVQSGPELKKPGETVKISCKASGYTFTNYGMNWVKQAPGKGLKWMGWVNTYTGEPTYTDDFKGRFAFSVETSASTVFLQINNLKNEDTATYFCARRSIPYYYAMDYWGQGTSLT
VL: DIVMTQSQKIMSTSVGDRVNVTCKASQNVGSNVAWYHQKPGQSPKALIYSASYRYSGVPDRFTGSGSGTDFTLTISNVQSEDLAEYFCQQYKTWTFGGGTKLEIKR
  Kd: 19 nM
